Data taken from US20180100009A1 (VHSQUARED, published 2018).

Key:
[1] = molecular target: T1, TcdA from C. difficile ribotype 087 (Clostridium difficile ribotype 087 …, UniProt P16154 1-2710); test: sandwich ELISA
T1 construct: also called 087 TcdA; TcdA 10463 (087)

[2] = molecular target: T2, TcdB from C. difficile ribotype 087 (Clostridium difficile ribotype 087, UniProt P18177 2-2366); test: ELISA: TcdB coat, quadrahead, detected with rabbit polyclonal anti-ICVD
T2 construct: also called 087 TcdB

[3] = molecular target: T3, TcdA from C. difficile ribotype 027 (Clostridium difficile ribotype 027 …, UniProt P16154 1-2710); test: sandwich ELISA: TcdB coat, quadrahead, TcdA 0-20 ng/ml, rabbit anti-TcdA pAb
T3 construct: also called 027 TcdA; TcdA R20291 (027)

[4] = molecular target: T3, TcdA from C. difficile ribotype 027; test: sandwich ELISA

Measured: binding result

B1: ID-1C (bispecific antibody)
chain: DVQLQESGGGLVQAGGSLRLSCAASGATSDVYAIGWFRQVPGKEREFVATINRSGSDSYYADSVKGRFTISRDNAKNTVYLQMNSLKPEETAVYYCAASRSDCIGYGCRRVSQDYWGQGTQVTVSSGGGGSGGGGSGGGGSGGGGSDVQLQESGGGLVQAGGSLRLSCVISGMDFSHKPAGWFRQAPGKEREFVASITTRASTHYADSVKGRFTISRDNAKNTVYLEMNSLKPEDTAVYYCNSEYYWGQGTQVTVSSGGGGSGGGGSGGGGSGGGGSDVQLQESGGGLVQAGDSLRLSCAASGATLSSYTIGWFRQAPEKEREFVAGSSRDGRTNYYANSVKGRFTISRDNAKNTVYLQMNSLKPEDTAVYYCAAHTTSGVPVRERSYAYWGQGTQVTVSSGGGGSGGGGSGGGGSGGGGSDVQLQESGGGLVQAGGSLRLSCAASGATFSSYYIGWFRQAPGKEREFVAAINGSGGNRISADSVKGRFTISRDNAKNTVYLQLNSLKPEDTAVYYCAASLTYYGRSARYDYWGQGTQVTVSS
notes: also called 1D-1C
binds: [1] | [2] | [3]

B2: ID-3C (bispecific antibody)
chain: DVQLQESGGGLVQAGDSLRLSCAASGATLSSYTIGWFRQAPEKEREFVAGSSRDGRTNYYANSVKGRFTISRDNAKNTVYLQMNSLKPEDTAVYYCAAHTTSGVPVRERSYAYWGQGTQVTVSSGGGGSGGGGSGGGGSGGGGSDVQLQESGGGLVQAGGSLRLSCAASGATSDVYAIGWFRQVPGKEREFVATINRSGSDSYYADSVKGRFTISRDNAKNTVYLQMNSLKPEETAVYYCAASRSDCIGYGCRRVSQDYWGQGTQVTVSSGGGGSGGGGSGGGGSGGGGSDVQLQESGGGLVQAGGSLRLSCVISGMDFSHKPAGWFRQAPGKEREFVASITTRASTHYADSVKGRFTISRDNAKNTVYLEMNSLKPEDTAVYYCNSEYYWGQGTQVTVSSGGGGSGGGGSGGGGSGGGGSDVQLQESGGGLVQAGGSLRLSCAASGATFSSYYIGWFRQAPGKEREFVAAINGSGGNRISADSVKGRFTISRDNAKNTVYLQLNSLKPEDTAVYYCAASLTYYGRSARYDYWGQGTQVTVSS
binds: [4] | [1] | [2]
